Key:
[1] = molecular target: BcLmuA K59A, nuclease-dead BcLmuA of the BcLmuA(K59A)B complex (Bacillus cellulasensis NIO-1130); assay: cryo-EM structure
[2] = molecular target: VcLmuA, LmuA of the type II Lamassu system from Vibrio cholerae O1 El (Vibrio cholerae O1 El); assay: cryo-EM structure
[3] = molecular target: VcLmuA, LmuA of the type II Lamassu system from Vibrio cholerae O1 El (Vibrio cholerae O1 El); assay: SEC-MALS

Substance: BcLmuA K59A, nuclease-dead BcLmuA of the BcLmuA(K59A)B complex (natural protein)
- stoichiometry N [1]: 4

Substance: VcLmuA, LmuA of the type II Lamassu system from Vibrio cholerae O1 El (natural protein)
- stoichiometry N [2]: 4

Substance: VcLmuC, LmuC of the type II Lamassu system from Vibrio cholerae O1 El (natural protein)
- stoichiometry N (VcLmuC per VcLmuA) [2]: 1
- stoichiometry N (LmuC per LmuA) [3]: 1
